Reference: article PMC9132891, “Antigenic structure of the human coronavirus OC43 spike reveals exposed and occluded neutralizing epitopes” (Nature Communications, 2022)

Legend:
Test in all cases: ELISA; S1 antigens coated; H2L2 mAbs at one concentration, 0.4 μg/ml; OD450nm
Conditions in all cases: both partners purified
[1] = molecular target: T1, S1 of OC43 isolate NL/2019 (Human coronavirus OC43, NL/2019, strain)
T1 construct: source: HEK-293T, transient, purified from culture supernatant (Protein A sepharose)
T1 chain: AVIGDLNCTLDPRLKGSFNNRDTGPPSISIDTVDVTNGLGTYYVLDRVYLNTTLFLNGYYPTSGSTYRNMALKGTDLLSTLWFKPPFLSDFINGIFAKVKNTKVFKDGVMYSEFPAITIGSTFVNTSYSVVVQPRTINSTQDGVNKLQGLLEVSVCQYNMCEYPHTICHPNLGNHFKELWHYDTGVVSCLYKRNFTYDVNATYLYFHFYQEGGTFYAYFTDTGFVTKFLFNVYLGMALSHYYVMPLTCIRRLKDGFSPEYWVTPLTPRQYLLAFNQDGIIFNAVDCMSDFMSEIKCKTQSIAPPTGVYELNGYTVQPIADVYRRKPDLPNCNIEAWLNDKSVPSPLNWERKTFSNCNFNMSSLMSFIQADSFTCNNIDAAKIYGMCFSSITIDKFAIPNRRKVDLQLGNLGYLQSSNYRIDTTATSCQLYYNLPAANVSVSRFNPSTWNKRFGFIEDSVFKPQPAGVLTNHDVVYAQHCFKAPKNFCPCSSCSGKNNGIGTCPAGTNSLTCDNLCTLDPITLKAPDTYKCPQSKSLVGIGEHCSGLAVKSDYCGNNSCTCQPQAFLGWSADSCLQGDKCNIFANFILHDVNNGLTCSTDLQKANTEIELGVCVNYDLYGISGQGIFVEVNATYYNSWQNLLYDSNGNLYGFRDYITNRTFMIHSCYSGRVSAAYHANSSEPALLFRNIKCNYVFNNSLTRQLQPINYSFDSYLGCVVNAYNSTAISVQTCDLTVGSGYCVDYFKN

[2] = molecular target: T2, S1 of OC43 isolate BE/2004 (Human coronavirus OC43, BE/2004, UniProt Q4VID5, strain)
T2 construct: source: HEK-293T, transient, purified from culture supernatant (Protein A sepharose)

[3] = molecular target: T3, S1 of OC43 isolate USA/1990(A-II) (Human coronavirus OC43, USA/1990(A-II) …, strain)
T3 construct: source: HEK-293T, transient, purified from culture supernatant (Protein A sepharose)
T3 chain: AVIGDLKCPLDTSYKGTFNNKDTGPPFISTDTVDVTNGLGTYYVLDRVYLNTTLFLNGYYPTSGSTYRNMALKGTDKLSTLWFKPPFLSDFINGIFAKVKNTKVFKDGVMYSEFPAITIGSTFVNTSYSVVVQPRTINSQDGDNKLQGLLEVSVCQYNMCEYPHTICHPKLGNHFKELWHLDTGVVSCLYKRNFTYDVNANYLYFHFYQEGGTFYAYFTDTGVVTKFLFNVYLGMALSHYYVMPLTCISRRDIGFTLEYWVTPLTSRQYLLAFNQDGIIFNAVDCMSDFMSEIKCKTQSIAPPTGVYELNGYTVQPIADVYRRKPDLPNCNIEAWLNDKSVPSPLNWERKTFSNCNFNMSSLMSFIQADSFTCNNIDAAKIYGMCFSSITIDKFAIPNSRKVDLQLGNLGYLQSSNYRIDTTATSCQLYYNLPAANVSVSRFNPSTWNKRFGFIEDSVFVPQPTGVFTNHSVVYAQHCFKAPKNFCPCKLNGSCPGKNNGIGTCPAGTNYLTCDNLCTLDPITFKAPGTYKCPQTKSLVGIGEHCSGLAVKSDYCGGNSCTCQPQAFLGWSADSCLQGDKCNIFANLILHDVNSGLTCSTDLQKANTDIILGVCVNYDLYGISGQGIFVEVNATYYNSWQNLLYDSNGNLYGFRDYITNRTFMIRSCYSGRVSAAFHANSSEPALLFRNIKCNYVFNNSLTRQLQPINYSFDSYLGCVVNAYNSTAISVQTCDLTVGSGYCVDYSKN

[4] = molecular target: T4, S1 of OC43 isolate NL/2004 (Human coronavirus OC43, NL/2004, strain)
T4 construct: source: HEK-293T, transient, purified from culture supernatant (Protein A sepharose)
T4 chain: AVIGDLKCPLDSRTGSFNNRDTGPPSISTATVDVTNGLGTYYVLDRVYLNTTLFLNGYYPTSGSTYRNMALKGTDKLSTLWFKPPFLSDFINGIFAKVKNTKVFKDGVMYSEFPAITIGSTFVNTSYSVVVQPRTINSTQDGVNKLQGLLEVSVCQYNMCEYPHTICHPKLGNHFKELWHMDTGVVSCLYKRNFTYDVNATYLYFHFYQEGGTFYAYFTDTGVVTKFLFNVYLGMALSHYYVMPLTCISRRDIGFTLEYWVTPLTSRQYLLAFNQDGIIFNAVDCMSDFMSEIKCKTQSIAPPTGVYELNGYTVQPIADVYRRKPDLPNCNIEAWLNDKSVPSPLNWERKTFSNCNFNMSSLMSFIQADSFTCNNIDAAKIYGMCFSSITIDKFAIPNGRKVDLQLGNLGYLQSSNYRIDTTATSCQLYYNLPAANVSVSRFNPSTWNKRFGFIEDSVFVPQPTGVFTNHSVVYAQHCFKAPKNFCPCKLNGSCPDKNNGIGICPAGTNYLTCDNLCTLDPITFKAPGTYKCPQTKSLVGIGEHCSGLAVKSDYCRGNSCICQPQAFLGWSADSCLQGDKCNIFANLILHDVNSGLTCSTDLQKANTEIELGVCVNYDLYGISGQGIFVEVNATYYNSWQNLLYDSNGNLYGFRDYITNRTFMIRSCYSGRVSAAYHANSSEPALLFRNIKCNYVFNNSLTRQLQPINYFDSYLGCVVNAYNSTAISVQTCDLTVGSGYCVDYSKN

[5] = molecular target: T5, S1 of OC43 isolate USA/1990(B) (Human coronavirus OC43, USA/1990(B) …, strain)
T5 construct: source: HEK-293T, transient, purified from culture supernatant (Protein A sepharose)
T5 chain: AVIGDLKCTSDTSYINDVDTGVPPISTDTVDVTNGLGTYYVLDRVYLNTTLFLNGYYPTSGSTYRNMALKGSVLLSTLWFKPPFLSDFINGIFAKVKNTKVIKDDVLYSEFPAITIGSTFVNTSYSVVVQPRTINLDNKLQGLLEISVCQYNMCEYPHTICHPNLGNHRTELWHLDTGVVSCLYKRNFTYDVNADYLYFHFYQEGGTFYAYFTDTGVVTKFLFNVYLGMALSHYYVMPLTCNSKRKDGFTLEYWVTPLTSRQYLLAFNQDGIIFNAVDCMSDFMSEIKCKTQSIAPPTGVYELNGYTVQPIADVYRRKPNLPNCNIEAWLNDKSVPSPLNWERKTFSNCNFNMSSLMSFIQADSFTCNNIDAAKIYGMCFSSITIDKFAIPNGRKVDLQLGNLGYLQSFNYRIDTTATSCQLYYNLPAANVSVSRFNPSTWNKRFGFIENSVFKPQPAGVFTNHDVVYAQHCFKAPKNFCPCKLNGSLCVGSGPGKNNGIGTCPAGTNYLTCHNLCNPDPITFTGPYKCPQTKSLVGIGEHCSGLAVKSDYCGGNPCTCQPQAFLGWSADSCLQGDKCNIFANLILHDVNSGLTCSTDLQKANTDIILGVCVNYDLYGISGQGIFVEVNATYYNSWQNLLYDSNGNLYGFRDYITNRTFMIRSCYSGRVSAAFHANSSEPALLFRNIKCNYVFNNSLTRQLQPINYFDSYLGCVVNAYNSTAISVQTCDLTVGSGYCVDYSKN

[6] = molecular target: T6, S1 of bovine coronavirus (BCoV), strain Mebus (Bovine coronavirus (strain Mebus) …, UniProt P15777)
T6 construct: also called BCoV S1; source: HEK-293T, purified (Protein A sepharose)
T6 sequence (P15777 14-763): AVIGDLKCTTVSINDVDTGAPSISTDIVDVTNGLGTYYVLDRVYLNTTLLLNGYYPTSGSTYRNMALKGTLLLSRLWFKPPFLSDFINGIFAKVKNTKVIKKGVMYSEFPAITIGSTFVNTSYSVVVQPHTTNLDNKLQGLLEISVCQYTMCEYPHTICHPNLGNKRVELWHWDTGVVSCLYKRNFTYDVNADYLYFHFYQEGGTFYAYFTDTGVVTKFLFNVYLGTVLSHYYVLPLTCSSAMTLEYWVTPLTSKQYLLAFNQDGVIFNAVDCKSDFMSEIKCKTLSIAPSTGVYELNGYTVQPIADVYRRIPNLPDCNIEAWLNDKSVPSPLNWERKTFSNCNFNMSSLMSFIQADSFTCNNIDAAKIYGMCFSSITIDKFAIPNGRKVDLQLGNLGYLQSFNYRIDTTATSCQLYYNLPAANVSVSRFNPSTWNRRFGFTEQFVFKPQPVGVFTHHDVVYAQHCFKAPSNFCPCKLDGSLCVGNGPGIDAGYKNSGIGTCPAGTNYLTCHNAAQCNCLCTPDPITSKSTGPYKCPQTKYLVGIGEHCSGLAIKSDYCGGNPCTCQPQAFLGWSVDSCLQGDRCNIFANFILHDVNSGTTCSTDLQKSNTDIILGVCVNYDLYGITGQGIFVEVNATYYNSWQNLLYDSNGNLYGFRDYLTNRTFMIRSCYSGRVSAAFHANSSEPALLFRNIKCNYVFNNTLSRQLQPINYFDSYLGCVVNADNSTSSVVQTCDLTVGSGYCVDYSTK

[7] = molecular target: T7, S1 of equine coronavirus (ECoV), strain NC99 (Equine coronavirus, strain NC99, UniProt A8R4D0, strain)
T7 construct: also called ECoV S1; source: HEK-293T, purified (Protein A sepharose)

Measured: binding result

B1: 56E10 H2L2 monoclonal antibody (antibody, V domains shown)
VH: QVQLQESGPGLVKPSETLSLTCTVSGGSISGYYWSWIRQPPGKGLEWIGYIFYNGNTNYNPSLKSRVTTSLDTSKNQFSLKLISVTGADTAVYYCVRTSLYYFDYWGQGTLVTVSS
VL: DIQMTQSPSSLSASVGDRVTITCQASQDISNFLNWYQQKPGKAPKLLIYDTSSLETGVPSRFSGSGSETDFTFTISSLQPEDIATYYCQQYDNLPLTFGGGTKVEIK
notes: also called 56E10 (H2L2 format)
not listed: [6] | [7]
binds: all other assays above

B2: 45B9 H2L2 monoclonal antibody (antibody, V domains shown)
VH: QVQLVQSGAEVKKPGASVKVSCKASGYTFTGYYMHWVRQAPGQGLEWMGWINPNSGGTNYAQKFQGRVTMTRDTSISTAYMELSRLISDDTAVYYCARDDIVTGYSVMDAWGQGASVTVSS
VL: DIQMTQSPSSLSASVGDRVTITCRASQSISNYLNWYQQKPGKAPTLLIYAASSLQSGVPSRFSGSGSGTDFTLTISSLQPEDFATYYCQPSYSSPYTFGQGTKLEIK
notes: also called 45B9 (H2L2 format)
binds: all assays above

B3: 65A11 H2L2 monoclonal antibody (antibody, V domains shown)
VH: QVQMVESGGGVVQPGRSLRLSCAASGFSFSSYGMHWVRQAPGKGLEWVAVIWSDVNYKFYADSVKGRFTISRDNSKNTLSLQMNSLRAEDTAVYYCARDSGLRYFDWDYRGYFDLWGRGTLVTVSS
VL: not shown
notes: also called 65A11 (H2L2 format)
binds: [6]
